B1: Complement factor H (Homo sapiens), P08603 (parent)
chain: MRLLAKIICLMLWAICVAEDCNELPPRRNTEILTGSWSDQTYPEGTQAIYKCRPGYRSLGNVIMVCRKGEWVALNPLRKCQKRPCGHPGDTPFGTFTLTGGNVFEYGVKAVYTCNEGYQLLGEINYRECDTDGWTNDIPICEVVKCLPVTAPENGKIVSSAMEPDREYHFGQAVRFVCNSGYKIEGDEEMHCSDDGFWSKEKPKCVEISCKSPDVINGSPISQKIIYKENERFQYKCNMGYEYSERGDAVCTESGWRPLPSCEEKSCDNPYIPNGDYSPLRIKHRTGDEITYQCRNGFYPATRGNTAKCTSTGWIPAPRCTLKPCDYPDIKHGGLYHENMRRPYFPVAVGKYYSYYCDEHFETPSGSYWDHIHCTQDGWSPAVPCLRKCYFPYLENGYNQNYGRKFVQGKSIDVACHPGYALPKAQTTVTCMENGWSPTPRCIRVKTCSKSSIDIENGFISESQYTYALKEKAKYQCKLGYVTADGETSGSITCGKDGWSAQPTCIKSCDIPVFMNARTKNDFTWFKLNDTLDYECHDGYESNTGSTTGSIVCGYNGWSDLPICYERECELPKIDVHLVPDRKKDQYKVGEVLKFSCKPGFTIVGPNSVQCYHFGLSPDLPICKEQVQSCGPPPELLNGNVKEKTKEEYGHSEVVEYYCNPRFLMKGPNKIQCVDGEWTTLPVCIVEESTCGDIPELEHGWAQLSSPPYYYGDSVEFNCSESFTMIGHRSITCIHGVWTQLPQCVAIDKLKKCKSSNLIILEEHLKNKKEFDHNSNIRYRCRGKEGWIHTVCINGRWDPEVNCSMAQIQLCPPPPQIPNSHNMTTTLNYRDGEKVSVLCQENYLIQEGEEITCKDGRWQSIPLCVEKIPCSQPPQIEHGTINSSRSSQESYAHGTKLSYTCEGGFRISEENETTCYMGKWSSPPQCEGLPCKSPPEISHGVVAHMSDSYQYGEEVTYKCFEGFGIDGPAIAKCLGEKWSHPPSCIKTDCLSLPSFENAIPMGEKKDVYKAGEQVTYTCATYYKMDGASNVTCINSRWTGRPTCRDTSCVNPPTVQNAYIVSRQMSKYPSGERVRYQCRSPYEMFGDEEVMCLNGNWTEPPQCKDSTGKCGPPPPIDNGDITSFPLSVYAPASSVEYQCQNLYQLEGNKRITCRNGQWSEPPKCLHPCVISREIMENYNIALRWTAKQKLYSRTGESVEFVCKRGYRLSSRSHTLRTTCWDGKLEYPTCAKR
partner: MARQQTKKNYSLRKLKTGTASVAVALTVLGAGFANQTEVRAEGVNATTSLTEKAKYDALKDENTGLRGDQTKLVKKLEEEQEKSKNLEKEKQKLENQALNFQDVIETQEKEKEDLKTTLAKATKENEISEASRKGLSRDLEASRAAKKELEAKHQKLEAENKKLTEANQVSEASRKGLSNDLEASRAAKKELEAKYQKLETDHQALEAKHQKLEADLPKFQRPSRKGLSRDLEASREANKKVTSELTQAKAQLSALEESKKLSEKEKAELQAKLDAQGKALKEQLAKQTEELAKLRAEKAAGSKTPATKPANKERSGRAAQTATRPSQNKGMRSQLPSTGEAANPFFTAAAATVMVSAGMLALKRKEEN

Variants of: B1
Settings: with mx_strp9 ennX

Variant	effect of a mutation on the interaction
Y402H	decreasing interaction strength

Source: IntAct's records for PubMed 18627465
